Data on 94 variants can be found in the supplement of paper PMC10567573.

The labels stand for the following.
B1: FEM1B (parent)
chain: TLAALLLNRSESDIRYLLGYVSQQ
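Note: lentivirally expressed fusions sorted by FACS into six bins by GFP to DsRed ratio, PSI derived from sequencing read proportions per bin multiplied by bin number.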

The variants in this data set derive from B1. Briefly: protein stability index of a GFP-peptide fusion (GPS, HEK-293T) (PSI 1-6); higher = more stable. Conditions: c terminus: a fixed tail appended.
Consider TLAALLLNRSESDIRYLLGYVSAQ [Q23A], for which the protein stability index amounted to 2.35. For TLAALLLNRSESDQRYLLGYVSQQ [I14Q] the value was 2.35.

In the case of TLAALLLNRSESDSRYLLGYVSQQ [I14S], the protein stability index was 3. For the variant TLAALLLNRSESDTRYLLGYVSQQ [I14T], the protein stability index stood at 2.56. Turning to TLAALLLNRSESDVRYLLGYVSQQ [I14V], the protein stability index came to 2.9.

For the variant TLAALLLNRSESDDRYLLGYVSQQ [I14D], the protein stability index was determined as 1.53.

TLAALLLNRSESDFRYLLGYVSQQ [I14F]: the protein stability index amounted to 2.7. Take TLAALLLNRSESDGRYLLGYVSQQ [I14G]: the protein stability index was 3.06.

For the variant TLAALLLNRSESDLRYLLGYVSQQ [I14L], the protein stability index amounted to 2.7. Turning to TLAALLLNRSESDARYLLGYVSQQ [I14A], the protein stability index was 2.58. As to TLAALLLNRSESDYRYLLGYVSQQ [I14Y], the protein stability index was 3.54. The figure for TLAALLLNRSESDKRYLLGYVSQQ [I14K] is 1.96. As to TLAALLLNRSESDHRYLLGYVSQQ [I14H], the protein stability index was 3.1. TLAALLLNRSESDERYLLGYVSQQ [I14E]: the protein stability index was 2.85.

In the case of TLAALLLNRSESDMRYLLGYVSQQ [I14M], the protein stability index was 3.25. Consider TLAALLLNRSESDNRYLLGYVSQQ [I14N], for which the protein stability index was 1.74. Consider TLAALLLNRSESDCRYLLGYVSQQ [I14C], for which the protein stability index was found to be 2.37. For TLAALLLNRSESDWRYLLGYVSQQ [I14W], the protein stability index was 1.77.

Consider TLAALLLNRSESDPRYLLGYVSQQ [I14P], for which the protein stability index was found to be 1.79. For TLAALLLNRSESDRRYLLGYVSQQ [I14R] the value was 3; for TLAALLLNRSEVDIRYLLGYVSQQ [S12V], 1.73. For TLAALLLNRSEPDIRYLLGYVSQQ [S12P], the protein stability index turned out to be 3.27. Regarding TLAALLLNRSEWDIRYLLGYVSQQ [S12W], the protein stability index is 3.62.

Consider TLAALLLNRSEYDIRYLLGYVSQQ [S12Y], for which the protein stability index stood at 2.93. The figure for TLAALLLNRSEQDIRYLLGYVSQQ [S12Q] is 2.69; for TLAALLLNRSETDIRYLLGYVSQQ [S12T] it is 2.18; for TLAALLLNRSERDIRYLLGYVSQQ [S12R] it is 2.36. As for TLAALLLNRSESDIMYLLGYVSQQ [R15M], the protein stability index stood at 3.35. As for TLAALLLNRSESDIEYLLGYVSQQ [R15E], the protein stability index is 2.72. On to TLAALLLNRSESDIVYLLGYVSQQ [R15V], for which the protein stability index was 1.75. The figure for TLAALLLNRSESDITYLLGYVSQQ [R15T] is 3.37; for TLAALLLNRSESDINYLLGYVSQQ [R15N] it is 2.55; for TLAALLLNRSESDIDYLLGYVSQQ [R15D] it is 2.12. The figure for TLAALLLNRSESDISYLLGYVSQQ [R15S] is 3.23. Consider TLAALLLNRSESDIKYLLGYVSQQ [R15K], for which the protein stability index was 2.3. As to TLAALLLNRSESDIHYLLGYVSQQ [R15H], the protein stability index turned out to be 2.4. As to TLAALLLNRSESDIIYLLGYVSQQ [R15I], the protein stability index is 2.81. For the variant TLAALLLNRSESDIPYLLGYVSQQ [R15P], the protein stability index came to 2.03. Consider TLAALLLNRSESDIFYLLGYVSQQ [R15F], for which the protein stability index turned out to be 3.37. With TLAALLLNRSESDIAYLLGYVSQQ [R15A], the protein stability index came to 2.31. For TLAALLLNRSESDICYLLGYVSQQ [R15C], the protein stability index was found to be 2.14. Turning to TLAALLLNRSESDIYYLLGYVSQQ [R15Y], the protein stability index came to 3.31. The figure for TLAALLLNRSESDILYLLGYVSQQ [R15L] is 3.36; for TLAALLLNRSESDIQYLLGYVSQQ [R15Q] it is 1.61; for TLAALLLNRSESHIRYLLGYVSQQ [D13H] it is 3.21. As for TLAALLLNRSESSIRYLLGYVSQQ [D13S], the protein stability index was determined as 2.62. The figure for TLAALLLNRSESGIRYLLGYVSQQ [D13G] is 2.81; for TLAALLLNRSESIIRYLLGYVSQQ [D13I] it is 3.07. Consider TLAALLLNRSESAIRYLLGYVSQQ [D13A], for which the protein stability index worked out at 2.76.

Turning to TLAALLLNRSESLIRYLLGYVSQQ [D13L], the protein stability index is 3.62. Consider TLAALLLNRSESWIRYLLGYVSQQ [D13W], for which the protein stability index amounted to 4.04.

As to TLAALLLNRSESVIRYLLGYVSQQ [D13V], the protein stability index is 3.19.

Turning to TLAALLLNRSESRIRYLLGYVSQQ [D13R], the protein stability index stood at 2.72. For TLAALLLNRSESFIRYLLGYVSQQ [D13F] the value was 1.76; for TLAALLLNRSESEIRYLLGYVSQQ [D13E], 3.26; for TLAALLLNRSESCIRYLLGYVSQQ [D13C], 3.94. The figure for TLAALLLNRSESNIRYLLGYVSQQ [D13N] is 2.77; for TLAALLLNRSESTIRYLLGYVSQQ [D13T] it is 2.88; for TLAALLLNRSESMIRYLLGYVSQQ [D13M] it is 3.99. As for TLAALLLNRSESPIRYLLGYVSQQ [D13P], the protein stability index worked out at 2.13. With TLAALLLNRSESYIRYLLGYVSQQ [D13Y], the protein stability index was 3.38. Turning to TLAALLLNRSESQIRYLLGYVSQQ [D13Q], the protein stability index is 2.04. Turning to TLAALLLNRSESKIRYLLGYVSQQ [D13K], the protein stability index worked out at 2.79. The figure for TLAALLLNRSESDIRYELGYVSQQ [L17E] is 3.04; for TLAALLLNRSESDIRYPLGYVSQQ [L17P] it is 1.51. Turning to TLAALLLNRSESDIRYGLGYVSQQ [L17G], the protein stability index amounted to 2.01.

On to TLAALLLNRSESDIRYFLGYVSQQ [L17F], for which the protein stability index worked out at 2.82. In the case of TLAALLLNRSESDIRYRLGYVSQQ [L17R], the protein stability index is 2.04. Turning to TLAALLLNRSESDIRYNLGYVSQQ [L17N], the protein stability index came to 2.24. Consider TLAALLLNRSESDIRYQLGYVSQQ [L17Q], for which the protein stability index turned out to be 3.77. TLAALLLNRSESDIRYWLGYVSQQ [L17W]: the protein stability index amounted to 2.67. As for TLAALLLNRSESDIRYSLGYVSQQ [L17S], the protein stability index worked out at 1.92. For TLAALLLNRSESDIRYILGYVSQQ [L17I] the value was 1.99. For the variant TLAALLLNRSESDIRYCLGYVSQQ [L17C], the protein stability index was found to be 3.59. Consider TLAALLLNRSESDIRYVLGYVSQQ [L17V], for which the protein stability index is 2.98. Turning to TLAALLLNRSESDIRYHLGYVSQQ [L17H], the protein stability index amounted to 1.26. With TLAALLLNRSESDIRYDLGYVSQQ [L17D], the protein stability index was 1.65. Take TLAALLLNRSESDIRYKLGYVSQQ [L17K]: the protein stability index turned out to be 1.1. For TLAALLLNRSESDIRYMLGYVSQQ [L17M] the value was 3.53; for TLAALLLNRSESDIRYTLGYVSQQ [L17T], 2.9.

For TLAALLLNRSESDIRYLLDYVSQQ [G19D], the protein stability index was found to be 2.62.

As to TLAALLLNRSESDIRYLLFYVSQQ [G19F], the protein stability index was 3.44. Turning to TLAALLLNRSESDIRYLLWYVSQQ [G19W], the protein stability index is 1.26. For the variant TLAALLLNRSESDIRYLLEYVSQQ [G19E], the protein stability index amounted to 2.37.

With TLAALLLNRSESDIRYLLTYVSQQ [G19T], the protein stability index was 2.4. Turning to TLAALLLNRSESDIRYLLCYVSQQ [G19C], the protein stability index came to 3.34. The figure for TLAALLLNRSESDIRYLLYYVSQQ [G19Y] is 3.17; for TLAALLLNRSESDIRYLLAYVSQQ [G19A] it is 2.38; for TLAALLLNRSESDIRYLLMYVSQQ [G19M] it is 2.35. Take TLAALLLNRSESDIRYLLRYVSQQ [G19R]: the protein stability index is 3.51. On to TLAALLLNRSESDIRYLLHYVSQQ [G19H], for which the protein stability index is 2.78. Turning to TLAALLLNRSESDIRYLLSYVSQQ [G19S], the protein stability index was 2.71. The figure for TLAALLLNRSESDIRYLLIYVSQQ [G19I] is 3.01; for TLAALLLNRSESDIRYLLLYVSQQ [G19L] it is 2.87.
